For 1 substance, EC50 results are on record in patent US20230303667A1.

Where “and” joins values, the source holds several entries; their conditions need not be identical. Identical values can stand only once.

This assay addresses Ebola virus Full length GP (Ebola virus (strain not stated)). Briefly: ELISA on Full length GP.

In general, EC50 refers to the midpoint of the concentration-response curve. As to 13F6 (antibody), the EC50 is 0.004 µg/mL and 0.0027 nM.
